Reference: article PMC4053984

Target: PRDM9Cst (Mus musculus (CAST/EiJ)) (UniProt Q96EQ9)
Experiment: EMSA competition
Settings: 10 mM Tris pH 7.5, 50 mM KCl, 1 mM DTT, 50 ng/ul poly(dI/dC), 0.05% NP-40, 0.5 pmol labelled dsDNA (printed pmol/l), 3 ul E. coli extract in 20 ul, 40 min, 5% …

Chain of PRDM9Cst (Mus musculus (CAST/EiJ)) (Q96EQ9 whole entry): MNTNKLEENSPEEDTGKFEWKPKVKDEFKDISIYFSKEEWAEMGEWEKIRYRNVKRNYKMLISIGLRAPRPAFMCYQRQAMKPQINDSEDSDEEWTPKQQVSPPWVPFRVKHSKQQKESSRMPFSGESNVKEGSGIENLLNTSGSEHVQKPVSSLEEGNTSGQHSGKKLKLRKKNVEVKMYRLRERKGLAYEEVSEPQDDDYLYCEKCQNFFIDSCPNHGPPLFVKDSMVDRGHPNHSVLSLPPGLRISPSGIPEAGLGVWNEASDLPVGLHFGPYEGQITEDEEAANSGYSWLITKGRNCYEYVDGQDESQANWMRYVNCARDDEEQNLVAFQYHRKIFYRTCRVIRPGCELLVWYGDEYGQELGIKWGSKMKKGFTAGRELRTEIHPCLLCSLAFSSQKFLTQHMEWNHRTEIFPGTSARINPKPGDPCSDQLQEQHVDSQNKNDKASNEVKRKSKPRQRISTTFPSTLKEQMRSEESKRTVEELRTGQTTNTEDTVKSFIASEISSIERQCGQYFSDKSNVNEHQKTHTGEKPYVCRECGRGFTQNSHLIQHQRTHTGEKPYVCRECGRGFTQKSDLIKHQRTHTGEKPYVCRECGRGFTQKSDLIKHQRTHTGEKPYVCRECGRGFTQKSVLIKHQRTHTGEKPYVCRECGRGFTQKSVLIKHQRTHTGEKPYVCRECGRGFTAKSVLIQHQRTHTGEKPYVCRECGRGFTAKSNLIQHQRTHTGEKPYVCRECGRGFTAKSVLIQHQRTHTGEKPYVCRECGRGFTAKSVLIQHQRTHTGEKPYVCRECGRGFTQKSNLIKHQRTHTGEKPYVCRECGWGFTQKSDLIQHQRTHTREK

Sequence	binding signal (scale: reference)	binding signal (fold stronger than CAST sequence)
ATAAGTGTTCAGACTTGGACTCTGCCCTTCCTTTAC (double strand) [Hlx1 36 bp CAST]	1	
ATAGTGTGCAGACTTGGACCCTGCCCTTTCTTTACG (double strand) [Hlx1 36 bp B6]		2.9
